Reference: article doi:10.1101/2020.10.30.362368 (bioRxiv, 2020)

What was measured:
[1] = molecular target: T1, SmcR WT (Vibrio vulnificus, UniProt Q9L8G8 1-205); assay: EMSA
T1 sequence: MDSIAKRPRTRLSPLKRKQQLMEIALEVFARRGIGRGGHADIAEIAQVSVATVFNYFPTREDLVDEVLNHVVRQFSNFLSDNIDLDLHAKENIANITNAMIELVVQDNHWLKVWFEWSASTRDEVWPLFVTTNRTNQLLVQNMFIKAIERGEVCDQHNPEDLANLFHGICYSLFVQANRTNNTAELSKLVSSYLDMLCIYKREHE

[2] = molecular target: T2, SmcR N55I (Vibrio vulnificus, UniProt Q9L8G8 1-205, N55I); assay: EMSA
T2 sequence: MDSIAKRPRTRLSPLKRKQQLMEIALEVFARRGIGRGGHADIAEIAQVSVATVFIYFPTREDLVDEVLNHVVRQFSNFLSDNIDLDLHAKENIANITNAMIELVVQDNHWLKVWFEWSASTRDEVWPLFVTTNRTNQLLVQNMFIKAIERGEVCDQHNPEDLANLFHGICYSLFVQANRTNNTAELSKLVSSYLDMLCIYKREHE

[3] = molecular target: V. harveyi His-RNAP alpha (RNA polymerase alpha subunit) (Vibrio harveyi, UniProt A0A0B4IMU9 1-330); assay: BLI

Binder	binding result [1]	binding result [2]	Kd [3] [nM]
PluxC site B (JDN55/JDN54) (dsDNA) DNA 1: TTACTTATTTATAGTGTTACAAATAACATTA DNA 2: TAATGTTATTTGTAACACTATAAATAAGTAA	binds	binds	
PluxC site E (site D mutated) (dsDNA) DNA 1: TTTGTTAAATGTTGCGCGTAATTATAAATAAATCAAACTATAATTAGATT DNA 2: AATCTAATTATAGTTTGATTTATTTATAATTACGCGCAACATTTAACAAA	binds		
SmcR wild-type, untagged (Vibrio vulnificus quorum-sensing transcription factor) (natural protein) MDSIAKRPRTRLSPLKRKQQLMEIALEVFARRGIGRGGHADIAEIAQVSVATVFNYFPTREDLVDEVLNHVVRQFSNFLSDNIDLDLHAKENIANITNAMIELVVQDNHWLKVWFEWSASTRDEVWPLFVTTNRTNQLLVQNMFIKAIERGEVCDQHNPEDLANLFHGICYSLFVQANRTNNTAELSKLVSSYLDMLCIYKREHE			142
SmcR N55I, untagged (natural protein) MDSIAKRPRTRLSPLKRKQQLMEIALEVFARRGIGRGGHADIAEIAQVSVATVFIYFPTREDLVDEVLNHVVRQFSNFLSDNIDLDLHAKENIANITNAMIELVVQDNHWLKVWFEWSASTRDEVWPLFVTTNRTNQLLVQNMFIKAIERGEVCDQHNPEDLANLFHGICYSLFVQANRTNNTAELSKLVSSYLDMLCIYKREHE			160
PluxC site D (site E mutated) (dsDNA) DNA 1: TTTGTTAAATGTTATGACTAATTATAAATAAATCAAACGCGCGTTAGATT DNA 2: AATCTAACGCGCGTTTGATTTATTTATAATTAGTCATAACATTTAACAAA	binds		
